Laboratory results published in patent publication US20060052292A1 (MAXYGEN APS MAXYGEN, published 2006).

Target: the molecule itself
Test: native Tris-Glycine gel, self-association (homotrimer) of apM1(82-244)
Experimental: After storage at −20° C. for several weeks the material was verified to have a heterogeneous appearance on a coomassie stained Novex 8-16% Tris-Glycine gel (Invitrogen; Cat. No. EC60452) run under native conditions (FIG. 4, lane 1). […] (In FIG. 4, M is SeeBlue Plus2).

B1: apM1(82-244), human adiponectin fragment expressed in CHO K1 cells (other)
chain: ETGVPGAEGPRGFPGIQGRKGEPGEGAYVYRSAFSVGLETYVTIPNMPIRFTKIFYNQQNHYDGSTGKFHCNIPGLYYFAYHITVYMKDVKVSLFKKDKAMLFTYDQYQENNVDQASGSVLLHLEVGDQVWLQVYGEGERNGLYADNDNDSTFTGFLLYHDTN
modifications: partial hydroxy-Pro at 86, 95 and 104; partial glyco-hydroxy-Lys at 101 (about 60%)
notes: Forms a calcium-stabilised homotrimer on native gels; On the Western blot the denatured monomer is detected
binding result: binds
